Values quoted from earlier work, collected in article PMC4380812.

Molecular target: HdeA (Escherichia coli) (UniProt P0AES9)

HdeA, sequence (P0AES9 22-110): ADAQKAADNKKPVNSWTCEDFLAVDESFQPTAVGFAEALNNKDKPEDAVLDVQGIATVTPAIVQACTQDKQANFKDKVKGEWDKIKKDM

Question: For HdeA (from UniProt P0AES9), which Kd is on record?
Answer: 1 µM
